The target of experiment [1] is T1, human IL-17A (human, UniProt Q16552 24-155).
T1 construct: Biotinylated in the ELISA; also called hIL-17; Hu IL-17A
The experiment is described as follows: ELISA, captured antibody, serially diluted biotin-IL-17 (Example 1.5.1). In general terms: ELISA stands for enzyme-linked immunosorbent assay.
T1 sequence (Q16552 24-155 limits assumed): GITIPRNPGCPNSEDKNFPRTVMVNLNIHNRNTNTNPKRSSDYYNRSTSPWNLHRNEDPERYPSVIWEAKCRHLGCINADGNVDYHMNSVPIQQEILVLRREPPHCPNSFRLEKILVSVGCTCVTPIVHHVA
Description: The following protocol is used to characterize the binding of IL-17 antibodies to human IL-17 by enzyme-linked immunosorbent assay (ELISA). […] 1. Coat ELISA plate with 50 μl per well of Goat anti Mouse IgG-Fc at 2 ug/ml, overnight at 4° C. […] 2. Wash plate 3×PBS/Tween. […] 3. Add 50 μl Mab diluted to 1 μg/ml in PBS/0.1% BSA to appropriate wells. Incubate 1 hr at room temperature (RT). […] 4. Wash plate 3× with PBS/Tween. […] 5. Add 50 μl of serial diluted biotin-IL17 (human IL-17, IL-17A/F, cyno IL-17) to appropriate wells. Incubate 1 hr at room temperature (RT). […] 6. Wash plate 3× with PBS/Tween. […] 7. […] Incubate 1 hr at RT. […] 8. Wash plate 3× with PBS/Tween. […] 9. […] 10. Stop reaction with 50 μl 2N H₂SO₄. […] Read absorbance at 450 nm.

The target in experiment [2] is T1, human IL-17A. The experiment is described as follows: cell-based or functional assay.
The target of experiment [3] is T2, human IL-17A (human, UniProt Q16552 24-155).
T2 construct: Purified recombinant; biotinylated in the ELISA; also called HuIL-17A; Hu IL-17A
The experiment is described as follows: SPR Biacore, captured binder. (SPR reads the build-up and loss of mass on a sensor chip optically.)
T2 sequence (Q16552 24-155 limits assumed): as above
Description: (§1) The binding of antibodies to purified recombinant human, cyno, rat, mouse, rabbit IL-17 and human IL-17A/F were determined by surface plasmon resonance-based measurements with a Biacore® 3000 instrument (Biacore® AB, Uppsala, Sweden) using running HBS-EP (10 mM HEPES [pH 7.4], 150 mM NaCl, 3 mM EDTA, and 0.005% surfactant P20) at 25° C. […] Approximately 5000 RU of goat anti-mouse or anti-human IgG (Fcγ) fragment specific polyclonal antibody (Pierce Biotechnology Inc, Rockford, Ill.) diluted in 10 mM sodium acetate (pH 4.5) was directly immobilized across a CM5 research grade biosensor chip using a standard amine coupling kit according to manufacturer's instructions and procedures at 25 μg/ml. Unreacted moieties on the biosensor surface were blocked with ethanolamine. Modified carboxymethyl dextran surface in flowcell 2 and 4 was used as a reaction surface. Unmodified carboxymethyl dextran without goat anti-mouse or anti-human IgG in flow cell 1 and 3 was used as the reference surface. For kinetic analysis, rate equations derived from the 1:1 Langmuir binding model were fitted simultaneously to association and dissociation phases of all eight injections (using global fit analysis) with the use of Biaevaluation 4.0.1 software. Purified antibodies were diluted in HEPES-buffered saline for capture across goat anti-mouse or anti-human IgG specific reaction surfaces. Antibodies to be captured as a ligand (25 μg/ml) were injected over reaction matrices at a flow rate of 5 μl/min. The association and dissociation rate constants, kon (unit M-1s-1) and koff (unit s-1) were determined under a continuous flow rate of 25 μl/min. Rate constants were derived by making kinetic binding measurements at ten different antigen concentrations ranging from 10 nM to 200 nM. The equilibrium dissociation constant (unit M) of the reaction between antibodies and recombinant purified IL-17 antigens was then calculated from the kinetic rate constants by the following formula: KD=koff/kon. Binding was recorded as a function of time and kinetic rate constants are calculated. In this assay, on-rates as fast as 10⁶ M⁻¹ s⁻¹ and off-rates as slow as 10⁻⁶ s⁻¹ can be measured.

The target of experiment [4] is T3, human IL-17A/F (human, UniProt Q16552 24-155; Q96PD4 31-163).
T3 construct: Heterodimer of IL-17A and IL-17F, purified recombinant; also called HuIL-17A/F; Hu IL-17A/F
Put plainly: SPR Biacore, captured binder.
T3 sequence (Q16552 24-155 limits assumed, chain 1 of 2): as the sequence (Q16552 24-155 limits assumed) above
T3 sequence (Q96PD4 31-163 limits assumed, chain 2 of 2): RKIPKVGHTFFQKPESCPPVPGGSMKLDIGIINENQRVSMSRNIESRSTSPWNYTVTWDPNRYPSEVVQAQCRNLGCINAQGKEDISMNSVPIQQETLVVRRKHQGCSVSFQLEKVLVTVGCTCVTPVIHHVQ
Description: as §1

The target of the next experiment is cyno IL-17A (cynomolgus monkey, UniProt A0A2K5TTB0 24-155). Put plainly: SPR Biacore, captured binder.
Sequence of cyno IL-17A (A0A2K5TTB0 entry or part of it): as the sequence (Q16552 24-155 limits assumed) above, with T3A, P8S, N34S, I77V, N78K, P104R counted along it
Experiment [5] deals with T4, human IL-17A (human, UniProt Q16552 24-155).
T4 construct: Recombinant; biotinylated in the ELISA; also called hIL-17; hIL17A
Put plainly: hIL17A ELISA.
T4 sequence (Q16552 24-155): as the sequence (Q16552 24-155 limits assumed) above
Description: The following protocol is used to characterize the binding of IL-17 antibodies to human IL-17 by enzyme-linked immunosorbent assay (ELISA). […] Coat ELISA plate with 50 μl per well of Goat anti Mouse IgG-Fc at 2 ug/ml, overnight at 4° C. […] Wash plate 3×PBS/Tween. […] Add 50 μl Mab diluted to 1 μg/ml in PBS/0.1% BSA to appropriate wells. Incubate 1 hr at room temperature (RT). […] Wash plate 3× with PBS/Tween. […] Add 50 μl of serial diluted biotin-IL17 (human IL-17, IL-17A/F, cyno IL-17) to appropriate wells. Incubate 1 hr at room temperature (RT). […] Wash plate 3× with PBS/Tween. […] Incubate 1 hr at RT. […] Wash plate 3× with PBS/Tween. […] Stop reaction with 50 μl 2N H₂SO₄. […] Read absorbance at 450 nm.

In experiment [6] the target is T4, human IL-17A. The experiment is described as follows: SPR (Biacore 3000), antibody captured by anti-Fc, antigen in solution.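 Note: purified recombinant IL-17 antigens flowed over captured antibodies in HBS-EP buffer, global Langmuir one-to-one fit of association and dissociation phases, KD derived from koff over kon.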
Description: as §1
Experiment [7] has as its target T5, human IL-17A/F (human, UniProt Q16552 24-155; Q96PD4 31-163).
T5 construct: Recombinant; biotinylated in the ELISA; also called hIL-17A/F; HuIL-17A/F
The description is as above.
T5 sequence (Q16552 24-155, chain 1 of 2): as the sequence (Q16552 24-155 limits assumed) above
T5 sequence (Q96PD4 31-163, chain 2 of 2): as the sequence (Q96PD4 31-163 limits assumed, chain 2 of 2) above
Description: as §1

For a further experiment, the target named is T6, cynomolgus monkey IL-17A (cynomolgus monkey, UniProt A0A2K5TTB0 24-155).
T6 construct: biotinylated in the ELISA; also called cyno IL-17; Cyno IL-17A
T6 sequence (A0A2K5TTB0 entry or part of it): as the sequence (Q16552 24-155 limits assumed) above, with T3A, P8S, N34S, I77V, N78K, P104R counted along it
The description is as above.

The target in the next experiment is T7, rat IL-17A (rat, UniProt Q61453 18-150, limits assumed).
T7 construct: Purified recombinant protein in SPR
T7 sequence (looked up): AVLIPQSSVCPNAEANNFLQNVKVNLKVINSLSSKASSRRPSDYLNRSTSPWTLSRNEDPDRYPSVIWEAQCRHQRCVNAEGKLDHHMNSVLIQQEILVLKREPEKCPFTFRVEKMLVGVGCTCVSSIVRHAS
The description is as above.

The next experiment addresses T8, mouse IL-17A (mouse, UniProt Q62386 26-158, limits assumed).
T8 construct: Purified recombinant protein in SPR; also called MuIL-17A; murine IL-17A
T8 sequence (looked up): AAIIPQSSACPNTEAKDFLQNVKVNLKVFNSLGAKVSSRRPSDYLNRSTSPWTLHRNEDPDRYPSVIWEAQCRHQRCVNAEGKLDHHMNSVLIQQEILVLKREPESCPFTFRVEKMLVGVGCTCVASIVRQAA
The experiment is described as above.

The source of these data is US20140348834A1 (published 2014).

Description for cyno IL-17A: as §1
Description for cynomolgus monkey IL-17A: as §1
Description for mouse IL-17A: as §1
Description for rat IL-17A: as §1

B1: IL17-LN-K9-F5 (antibody, V domains shown)
VH: EVQLVQSGAEVKNPGASVKVSCKVSGSRLSDLAMHWVRQAPGKGPEWMGGFDPDEGETVYAQNFQGRVSMTEDTSSDTAYMELNSLRSEDTAVYYCATIRPWLGGAYYFDNWGQGTLVTVSS
VL: ETTLTQSPAFMSATPGDKVNISCKASQDIDDDMNWYQQKPGEAALFIIQEATTLVPGIPPRFSGSGYGTDFTLTVNNIQSEDAAYYFCLQHDSFPYTFGQGTKLEIKR
notes: Fully human monoclonal antibody from mRNA display
For B1, the EC50 – broadly, the concentration giving half of the maximal effect – in the experiment with human IL-17A [1] was 7.45 nM.

B2: IL17-B6-29 (antibody, V domains shown)
VH: EVQLVQSGAEVKKPGSSVKVSCKASGGSFISYGYNWVRQAPGQGLEWMGGITPFFGTADYAQKFQGRVTITADESTTTAYMELSGLTSDDTAVYYCAREPNDFWNGYYTTHHFDYWGQGTTVTVSS
VL: DVVMTQSPDFQSVTPKEKVTITCRASQNIGSALHWYQQKPDQSPKLLIKYASQSISGVPSRFSGSGSGTDFTLTINGLEAEDAGTYYCHQSTSLPHTFGQGTKLDIKR
As to B2, the “Potency (pM), IL-17-driven IL-6 production in HS27 cells” value (“Potency (pM)” for short) in the experiment with human IL-17A [2] was found to be 134 pM. The molecule further registered an EC50 in the experiment with human IL-17A [1] of 0.09 nM.

B3: IL17-TN-K7-B6 (antibody, V domains shown)
VH: EVQLVQSGAEVKKPGESLKISCKASGGSFRSYGISWVRQAPGQGLEWMGGITPILGTANYAQKFQGRVTITADESTTTAYMELSGLTSDDTAVYYCAREPNDFWNGYYTTHHFDYWGQGTPVTVSS
VL: DVVMTQSPDFQSVTPKEKVTITCRASQNIGSALHWYQQKPDQSPKLLIKYASQSISGVPSRFSGSGSGTDFTLTINGLEAEDAGTYYCHQSTSLPHTFGQGTKLDIKR
notes: Fully human antibody
For the molecule B3, in the experiment with human IL-17A [3], the Kd – broadly, the equilibrium constant for the complex coming apart – came to 840 pM; the off-rate (koff) – broadly, a measure of how fast the partners let go of each other – stood at 1.47e-05 s⁻¹; the kon – broadly, the rate constant with which the complex forms – worked out at 17500 M⁻¹ s⁻¹. In addition, in the experiment with human IL-17A/F [4], binding was characterised by a dissociation constant (Kd) of 21.9 nM, the koff came out at 0.000175 s⁻¹ and the kon was found to be 7980 M⁻¹ s⁻¹. Besides, in the experiment with cyno IL-17A, binding was characterised by a dissociation constant (Kd) of 992 pM, the koff amounted to 2.51e-05 s⁻¹ and the kon was 25300 M⁻¹ s⁻¹.

B4: IL17-h5C5.18 (antibody, V domains shown)
VH: EVQLVQSGAEVKKPGASVKVSCKASGYTFTDYEFHWVRQAPGQGLEWIGVIHPGNGGTAYNQNFRDRATLTADKSTSTAYMELSSLRSEDTAVYYCTRFLTYEGYFDYWGQGTLVTVSS
VL: NIVMTQSPSSLSASVGDRVTITCKASQSVSIDVGWFQQKPGKSPKLLIYHASNRYTGVPSRFSGSGSGTDFTFTISSLQPEDFATYFCQQDYSSPYTFGQGTKLEIKR
notes: IgG; constant regions not specified; also called h5C5.18 (VH.1b-Vk.1c)
In the experiment with human IL-17A [5], B4 had an EC50 of 0.03 nM. The Kd in the experiment with human IL-17A [6] was 0.521 nM; with human IL-17A/F [7] it was 1.31 nM; with cynomolgus monkey IL-17A, 0.437 nM; with rat IL-17A, 9.15 nM; in the experiment with mouse IL-17A, 2.91 nM. Moreover, the off-rate (koff) in the experiment with human IL-17A [6] is 0.000493 s⁻¹; in the experiment with human IL-17A/F [7], 0.00101 s⁻¹; with cynomolgus monkey IL-17A, 0.000254 s⁻¹; with rat IL-17A it was 0.00421 s⁻¹; in the experiment with mouse IL-17A, 0.0005 s⁻¹. Moreover, the kon was 947000 M⁻¹ s⁻¹ in the experiment with human IL-17A [6]; 772000 M⁻¹ s⁻¹ with human IL-17A/F [7]; 581000 M⁻¹ s⁻¹ in the experiment with cynomolgus monkey IL-17A; 460000 M⁻¹ s⁻¹ in the experiment with rat IL-17A; 172000 M⁻¹ s⁻¹ with mouse IL-17A.

B5: IL17-B6-46 (antibody, V domains shown)
VH: EVQLVQSGAEVKKPGESLKISCKASGGSFISYGISWVRQAPGQGLEWMGGITHFFGSTDYAQKFQGRVTITADESTTTAYMELSGLTSDDTAVYYCAREPNEFWNGYYTTHDFDSWGQGTTVTVSS
VL: EIVLTQSPDFQSVTPKEKVTITCRASQAIGSELHWYQQKPDQSPKLLIKYASYSVSGVPSRFSGSGSGTDFTLTINGLEAEDAGTYYCHQSASLPYTFGQGTKVDIK
notes: also called pJP253 B6.1 #46VH / pJP254 B6.1 #46Vk
On to B5, for which the “Potency (pM)” value with human IL-17A [2] came out at 59 pM. The molecule further showed a half-maximal effective concentration (EC50) in the experiment with human IL-17A [1] of 0.14 nM.

B6: IL17-B6-16 (antibody, V domains shown)
VH: EVQLVQSGAEVKMPGSSLKISCKASGGSFRGYGISWVRQAPGQGLEWMGGITPFFGWADYAQKFQGRVTITADESTTTAYMELSGLTSDDTAVYYCARDPNEFWNGYYDTHHFDYWGQGTTVTVSS
VL: EIVLTQSPDFQSVTPKEKVTITCRASQDIGSALHWYQQKPDQSPKLLIKYASHSVSGVPSRFSGSGSGTDFTLTINGLEAEDAGTYYCHQSDILPHTFGPGTKVDIK
In the experiment with human IL-17A [3], B6 yielded a Kd of 7.94 pM, a koff of 3e-05 s⁻¹ and a kon of 3.78e+06 M⁻¹ s⁻¹. Besides, in the experiment with human IL-17A/F [4], the Kd was 0.0164 nM, the koff is 6.57e-05 s⁻¹ and the on-rate (kon) stood at 4e+06 M⁻¹ s⁻¹. In the experiment with cyno IL-17A, this molecule displayed a Kd of 4.83 pM, a koff of 4.48e-05 s⁻¹ and a kon of 9.27e+06 M⁻¹ s⁻¹.

B7: IL17-B6-18 (antibody, V domains shown)
VH: EVQLVQSGAEVKKPGESLKVSCKASGGRFRTYGISWVRQAPGQGLEWMGGITNFFGWTDYAQKFQGRVTITADESTTTAYMELSGLTSDDTAVYYCARVPNEFWNGYYATDYFDNWGQGTTVTVSS
VL: EIVLTQSPDFQSVTPKEKVTITCRASQEIGASLHWYQQKPDQSPKLLIKYASHSASGVPSRFSGSGSGTDFTLTINSLEAEDAATYYCHQSDGLPYTFGQGTKVDIK
notes: also called pJP251 B6.1 #18VH / pJP250 B6.1 #18Vk
As for B7, the EC50 with human IL-17A [1] worked out at 0.16 nM.

B8: IL17-B6-15 (antibody, V domains shown)
VH: EVQLVQSGAEVKKPGESLKISCKASGGSFSGYGTSWVRQAPGQGLEWMGGITHFFGAVDYAQKFQGRVTITADESTTTAYMELSGLTSDDTAVYYCARDPNEFWNGYYATHDFDYWGQGTTVTVSS
VL: EIVLTQSPDFQSVTPKEKVTITCRASQNIGAELHWYQQKPDQSPKLLIKYASHSISGVPSRFSGSGSGTDFTLTINGLEAEDAGTYYCHQTDRLPYSFGPGTKVDIK
Turning to B8, the Kd with human IL-17A [3] was found to be 7.3 pM; with human IL-17A/F [4], 0.00647 nM; with cyno IL-17A, 4.01 pM. Moreover, the values for the koff with human IL-17A [3], in the experiment with human IL-17A/F [4] and with cyno IL-17A were 6.02e-05 s⁻¹, 5.71e-05 s⁻¹ and 5.5e-05 s⁻¹, respectively. Further, the results for the kon in the experiment with human IL-17A [3], with human IL-17A/F [4] and in the experiment with cyno IL-17A were 8.25e+06 M⁻¹ s⁻¹, 8.82e+06 M⁻¹ s⁻¹ and 1.37e+07 M⁻¹ s⁻¹, respectively.

B9: IL17-G9-3 (antibody, V domains shown)
VH: EVQLLESGGGVVQPGRSLRLSCAASGFIFSNYGMHWVRQAPGKGLEWVAVISYDGSNKYYADSVKGRFTISRDNSKNTLYLEMNSLRPEDTAVYYCAKVGASGDYYYSYGLDVWGQGTTVTVSS
VL: QSVLTQPPSASGTPGQTVSISCSGRNSNIGSHYVHWYQQVPGAAPKLLMYDFGLRPSGVPDRFSVSQSGTSASLAISGLQSEDEADYYCATWDDMLGGYVFGTGTKVTVLG
Regarding B9, the “Potency (pM)” value with human IL-17A [2] worked out at 334 pM. The molecule also had an EC50 with human IL-17A [1] of 0.05 nM.

B10: IL17-G9-5 (antibody, V domains shown)
VH: EVQLLESGGGVVQPGRSLRLSCAASGFIFRNYGMHWVRQAPGKGLEWVAVIAYDGSRQYYSDSVKGRFTISRDNSKNTLYLEMNSLRPEDTAVYYCAKVGASGDYYYSYGLDLWGQGTTVTVSS
VL: QSVLTQPPSASGTPGQTVSISCSGRQSNIGRHYVDWYQQVPGAAPKLLMYYDSIRPSGVPDRFSGSQSGTSASLAISGLQSEDEADYYCGMWDDSLAGYVFGSGTKVTVLG
As for B10, the “Potency (pM)” value with human IL-17A [2] was found to be 310 pM. This molecule showed an EC50 with human IL-17A [1] of 0.12 nM.

B11: IL17-G9-6 (antibody, V domains shown)
VH: EVQLLESGGGVVQPGRSLRLSCAASGFIFSDYGMHWVRQAPGKGLEWVAVISYDGSNKYYADSVKGRFTISRDNSKNTLYLEMNSLRPEDTAVYYCAKVGASGDYYYSYGLDVWGQGTTVTVSS
VL: QSVLTQPPSASGTPGQTVSISCSGRQSNIGNHYVDWYQQVPGAAPKLLIYGDVIRPSGVPDRFSGSQSGTSASLAISGLQSEDEADYYCATWDDWLAGYVFGSGTKVTVLG
Consider B11, for which the “Potency (pM)” value in the experiment with human IL-17A [2] stood at 884 pM. The same molecule came in with an EC50 in the experiment with human IL-17A [1] of 0.12 nM.

B12: IL17-G9-M1 (antibody, V domains shown)
VH: EVQLLESGGGVVQPGRSLRLSCAASGFIFSNYGMHWVRQAPGKGLEWVAVISYDGGYKYYADSVKGRFTISRDNSKNTLYLEMNSLRPEDTAVYYCAKLSLSGDYYYSYGFDGWGQGTTVTVSS
VL: QSVLTQPPSASGTPGQTVSISCSGSKSNIGSHYVHWYQQVPGAAPKLLMYDFGQRPSGVPDRFSGSQSGTSASLAISGLQSEDEADYYCGTWDDWLGGYVFGTGTKVTVLG
Regarding B12, the “Potency (pM)” value with human IL-17A [2] came to 88 pM. In addition, the EC50 with human IL-17A [1] stood at 0.08 nM.
